{
  "source": "patent US20050019758A1",
  "assay_in_all_cases": "cell-based or functional assay",
  "key": {"[1]": {"target": "F protein of RS 9320 (prototype B1) (Respiratory Syncytial Virus)"}, "[2]": {"target": "F protein of RS Long strain virus (native form, on virus and infected VERO cells) (Respiratory Syncytial Virus) (UniProt P12568)", "sequence (P12568 26-574)": "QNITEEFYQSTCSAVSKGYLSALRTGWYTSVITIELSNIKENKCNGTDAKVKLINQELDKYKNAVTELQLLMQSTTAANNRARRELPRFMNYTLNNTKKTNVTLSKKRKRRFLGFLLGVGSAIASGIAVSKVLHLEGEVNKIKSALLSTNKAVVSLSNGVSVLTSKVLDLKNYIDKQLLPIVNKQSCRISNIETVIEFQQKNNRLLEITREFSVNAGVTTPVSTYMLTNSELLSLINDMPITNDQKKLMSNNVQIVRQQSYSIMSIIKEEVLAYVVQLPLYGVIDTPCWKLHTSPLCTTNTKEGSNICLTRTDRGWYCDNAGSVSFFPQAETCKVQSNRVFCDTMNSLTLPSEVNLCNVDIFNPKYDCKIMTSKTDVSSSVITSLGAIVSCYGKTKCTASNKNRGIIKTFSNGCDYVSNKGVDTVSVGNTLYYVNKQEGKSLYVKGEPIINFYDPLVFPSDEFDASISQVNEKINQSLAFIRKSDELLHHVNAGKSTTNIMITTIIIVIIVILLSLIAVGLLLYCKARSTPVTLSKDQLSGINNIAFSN"}, "[3]": {"target": "F protein of RSV clinical isolate A1-V1763 (Respiratory Syncytial Virus)"}, "[4]": {"target": "F protein of RSV clinical isolate A2-626 (Respiratory Syncytial Virus)"}, "[5]": {"target": "F protein of RSV clinical isolate A2-847 (Respiratory Syncytial Virus)"}, "[6]": {"target": "F protein of RSV clinical isolate A3-7062 (Respiratory Syncytial Virus)"}, "[7]": {"target": "F protein of RSV clinical isolate A4-6652 (Respiratory Syncytial Virus)"}, "[8]": {"target": "F protein of RSV clinical isolate B1-6973 (Respiratory Syncytial Virus)"}, "[9]": {"target": "F protein of RSV clinical isolate B2-6556 (Respiratory Syncytial Virus)"}, "[10]": {"target": "F protein of RSV clinical isolate B3-447 (Respiratory Syncytial Virus)"}},
  "data": [
    {"substance": "SB 209763 (antibody)", "values": [
      {"measurement": "Fusion-Inhibition Titer EC50", "setting": "[1]", "result": 2.5, "unit": "µg/mL"},
      {"measurement": "Fusion-Inhibition Titer EC50", "setting": "[2]", "result": 1.3, "unit": "µg/mL"},
      {"measurement": "Fusion-Inhibition Titer EC50", "setting": "[3]", "result": 1.95, "unit": "µg/mL"},
      {"measurement": "Fusion-Inhibition Titer EC50", "setting": "[4]", "result": 0.36, "unit": "µg/mL"},
      {"measurement": "Fusion-Inhibition Titer EC50", "setting": "[5]", "result": 0.27, "unit": "µg/mL"},
      {"measurement": "Fusion-Inhibition Titer EC50", "setting": "[6]", "result": 1.67, "unit": "µg/mL"},
      {"measurement": "Fusion-Inhibition Titer EC50", "setting": "[7]", "result": 1.52, "unit": "µg/mL"},
      {"measurement": "Fusion-Inhibition Titer EC50", "setting": "[8]", "result": 2.22, "unit": "µg/mL"},
      {"measurement": "Fusion-Inhibition Titer EC50", "setting": "[9]", "result": 2.05, "unit": "µg/mL"},
      {"measurement": "Fusion-Inhibition Titer EC50", "setting": "[10]", "result": 1.7, "unit": "µg/mL"}
    ]}
  ]
}
